In patent US20230203156A1 (WILLIAM ROBERT ARATHOON LIVING TRUST DATED AUGUST 29 2016, published 2023):
Residue numbers refer to the chain shown, from its start. Names and notes keep the numbering of the source. Values joined by “and” are separate entries in the source; they are usually repeats but may differ in a detail not shown here. Equal entries are not always repeated. Where two headings read alike, the source gives them in different places. One block for each binder: values may come before it.

Key:
[1] = biological target: T1, cynomolgus MDR1 (Macaca fascicularis) (Macaca fascicularis (cynomolgus), UniProt P08183 1-1280 (human entry)); assay: flow cytometry, 293T cells transfected with cynomolgus MDR1
T1 construct: also called cB1; cynomolgus ABCB1

[2] = biological target: T2, human MDR1 (multidrug resistance protein 1) (human, UniProt P08183 1-1280); assay: flow cytometry
T2 construct: also called ABCB1; P-glycoprotein 1

[3] = biological target: T2, human MDR1 (multidrug resistance …); assay: flow cytometry, 293T cells overexpressing human MDR1
human CD47 [4] = biological target: T3, human CD47 (human, UniProt Q08722 19-323); assay: binding to C6 cells expressing human CD47, figure legend
T3 construct: whole, on cells; Overexpressed on rat C6 cells, or endogenous on human tumour cell lines; also called KT14; hKT14

[5] = biological target: T2, human MDR1 (multidrug resistance …); assay: binding to C6 cells overexpressing human ABCB1 (FIGS. 17A-17B)
human CD47 [6] = biological target: T3, human CD47; assay: binding to C6 cells overexpressing human CD47 (FIGS. 17A-17B)
[7] = biological target: T2, human MDR1 (multidrug resistance …); assay: cell-based or functional assay
[8] = biological target: T1, cynomolgus MDR1 (Macaca fascicularis); assay: flow cytometry on cells expressing cynomolgus MDR1
[9] = biological target: T1, cynomolgus MDR1 (Macaca fascicularis); assay: flow cytometry
[10] = biological target: T2, human MDR1 (multidrug resistance …); assay: cell-based or functional assay; remark: listed apart in the source
[11] = biological target: T2, human MDR1 (multidrug resistance …); assay: flow cytometry, 293T cells stably expressing human ABCB1 (293T_ABCB1_OX)

- binding result [1]: binds
- binding result [2]: binds
B1: B1.129.huH1-huL1(KV3) (antibody, human IgG1, V domains shown)
VH: EVQLVQSGAEVKKPGASVKVSCKASGYTFSTYVIHWVRQAPGQGLEWIGYIYPYNDYTKYNEKFKDRATLTSDKSTSTAYMELRSLRSDDTAVYYCSRAYYGNLVGYGVDYWGQGTTVTVSS
VL: EIVLTQSPATLSLSPGERATLSCRASSSVSFIYWYQQKPGQSPRPWIFATSNLASGVPARFSGSGSGTDYTLTISSLEPEDFAVYYCHQWGSNLPTFGGGTKLEIK
notes: Humanized B1.129; Human IgG1/kappa constant regions; also called B1.129.hz1

- binding result [3]: no binding
- binding result [1]: no binding
B2: B1.129.huH1-huL1(KV1) (antibody, human IgG1, V domains shown)
VH: B1 VH
VL: DIQLTQSPSSLSASVGDRVTITCRASSSVSFIYWYQQKPGKSPKPWIFATSNLASGVPSRFSGSGSGTDYTLTISSLQPEDFATYYCHQWGSNLPTFGGGTKLEIK
notes: Humanized B1.129; Human IgG1/kappa constant regions; also called B1.129.hz2

- binding result (human CD47 [4]): binds
B3: KT14.5F9hu scFv-B1.261.hu1 (bispecific antibody, human IgG1, kappa)
scFv: not shown
heavy: EVQLQESGPGLVKPSETLSLTCTVSGFSLTSYGVHWVRQPPGKGLEWLVVIWSDGSTTYNSALKSRLTISKDNSKNQVSLKLSSVTAADTAVYYCARHGRWLLQRGGAMDYWGQGTMVTVSSASTKGPSVFPLAPSSKSTSGGTAALGCLVKDYFPEPVTVSWNSGALTSGVHTFPAVLQSSGLYSLSSVVTVPSSSLGTQTYICNVNHKPSNTKVDKRVEPKSCDKTHTCPPCPAPELLGGPSVFLFPPKPKDTLMISRTPEVTCVVVDVSHEDPEVKFNWYVDGVEVHNAKTKPREEQYNSTYRVVSVLTVLHQDWLNGKEYKCKVSNKALPAPIEKTISKAKGQPREPQVCTLPPSREEMTKNQVSLSCAVKGFYPSDIAVEWESNGQPENNYKTTPPVLDSDGSFFLVSKLTVDKSRWQQGNVFSCSVMHEALHNHYTQKSLSLSPGK
light: DVQMTQSPSSLSASVGDRVTITCRASQNVGSYIAWYQQKPGKSPKALIYSASYRSSGVPSRFSGSGAGTDFTLTISSLQPEDFATYFCQQYNSYPLTFGGGTKLEIKRTVAAPSVFIFPPSDEQLKSGTASVVCLLNNFYPREAKVQWKVDNALQSGNSQESVTEQDSKDSTYSLSSTLTLSKADYEKHKVYACEVTHQGLSSPVTKSFNRGEC

- binding result (human CD47 [4]): binds
B4: KT14.B6H12hu scFv-B1.261.hu1 (bispecific antibody, human IgG1, kappa)
scFv: not shown
heavy: B3 heavy
light: B3 light

- binding result [5]: binds
- binding result (human CD47 [6]): binds
B5: 15D3DD KT14KK MRK16v5 LC (bispecific antibody, human IgG1)
heavy 1: not shown
heavy 2: not shown
VL: DIVMTQTPLSSPVTLGQPASISCRSSQSIVYSNGNTYLEWYQQKPGQPPRLLIYKISNRFSGVPDRFSGSGAGTDFTLKISRVEAEDVGVYYCFQASHFPRTFGGGTKLEIK

- IC50 of vincristine on N6/ADR cells with antibody [7]: 0.0038 nM
- binding result [8]: binds
B6: B1.261 (antibody, human IgG1, V domains shown)
VH: QVQLKESGPGLVAPSQSLSITCTVSGFSLTSYGVHWVRQPPGKGLEWLVVIWSDGSTTYNSALKSRLSISKDNSKSQVFLKMNSLQIDDTAMYYCARHGRWLLQRGGAMDYWGQGTSVTVSS
VL: DVVMTQAPKFMSTSVGDRVSVTCRASQNVGSYIAWYQQKLGQSPKALIYSASYRCSGVPDRFTGSGAGTDFTLTIRNVQSEDLAEYFCQQYNSYPLTFGGGTKLEIK
notes: expressed with human IgG1 heavy and human kappa light constant regions; also called KNJY B1-261; KB1.261

- IC50 of vincristine on N6/ADR cells with antibody [7]: 0.0132 nM
- binding result [9]: binds
B7: B1.129 (antibody, human IgG1, V domains shown)
VH: EVQLQQSGPELVKPGASVKMSCKASGYTFSTYVIHWVKQKPGQGLEWIGYIYPYNDYTKYNEKFKDKATLTSDKSSSTAYMEIRSLTSEDSAVYYCSRAYYGNLVGYGVDYWGQGTSVTVSS
VL: QIVLTQSPAILPASPGEKVTMTCRASSSVSFIYWYQQRPGSSPKPWIFATSNLASGVPARFSGSGSGTSYSLTISRVEAEDAATYYCHQWGSNLPTFGGGTKLEIK
notes: expressed with human IgG1 heavy and human kappa light constant regions; also called KNJY B1-129; KB1.129

- IC50 of vincristine on N6/ADR cells with antibody [7]: 3.34 nM and 2.87 nM
- binding result [1]: binds
B8: B1.28 (antibody, human IgG1, V domains shown)
VH: EVKLVESGGGLVKPGGSLKLSCAASGFTFGLYTMSWVRQTPERRLEWVATISSGGSNTYYPDSVKGRFTISRDNAKNNLFLQMNSLRSEDTALYYCARYYRYDAWFAYWGQGTLVTVSS
VL: DVLLTQTPLSLPVSLGDQASISCRSSQNIVHSTGNTYLDWYLQKPGQSPKLLIYKVSNRFSGVPDRFSGSGSGTDFTLKISRVEAEDLGVYFCFQGSHIPRTFGGGTKLEIK
notes: expressed with human IgG1 heavy and human kappa light constant regions; also called KNJY B1-28; KB1.28

- IC50 of vincristine on N6/ADR cells with antibody [10]: 0.0064 nM
- EC50 [11]: 118 nM
B9: BisAb-1 (15D3 HC-Hz1 DD hIgG1 / KT14 IgG1 KK / B1-28 VL humaniz) (bispecific antibody)
VH: EVQLVESGGVVVQPGGSLRLSCAASGFTFSRYTMSWVRQAPGKGLEWVATISSGGGQTYYPDSVKGRFTVSRDNSKNSLYLQMNSLRTEDTALYYCARYGAGDAWFAYWGQGTLVTVSS
heavy: not shown
VL: B8 VL with L3V, T7S, S14T, D17Q, Q18P, L42Q, K44R, K50R, L88V, G105Q
notes: The 15D3 Hz1 VH is fused to human IgG1 Fc with K392D and K409D (EU)

- binding result [5]: binds
- binding result (human CD47 [6]): binds
B10: 15D3DD KT14KK B1.89v1 LC (bispecific antibody, human IgG1)
heavy 1: not shown
heavy 2: not shown
VL: B8 VL with L4M, N28T, T33N, D39E, N58K, F92Y, G96A, I99F
notes: also called 15D3DD/KT14KK/89v1

- binding result [5]: binds
B11: 15D3DD KT14KK B1.28.huL2 LC (bispecific antibody, human IgG1)
heavy 1: not shown
heavy 2: not shown
VL: B8 VL with L3V, T7S, S14T, L15P, D17E, Q18P, K50Q, L88V, F92Y, G105Q

- IC50 of vincristine on N6/ADR cells with antibody [10]: 0.734 nM
B12: MRK16 (antibody, V domains shown)
VH: B8 VH with K3I, G30S, L31S, R43K, S56G, F80Y, N84S, D103E, Y108S, S119A
VL: B8 VL with L4M, L9V, P12S, N28S, D39E, V56I, F92Y, G96A, I99F

- IC50 of vincristine on N6/ADR cells with antibody [10]: 0.466 nM
- EC50 [11]: 14.6 nM
B13: 15D3 (antibody, V domains shown)
VH: EVKVVESGGVLVRPGGSLKLSCAASGFTFSRYTMSWVRQTPEKRLEWVATISSGGGNTYYPDSVKGRFTVSRDNAMSSLYLQMSSLRSEDTALYYCARYGAGDAWFAYWGQGTLVTVSS
VL: B8 VL with L4M, N28S, D39E, V83L, F92Y, I99F, K108R
notes: Known anti-MDR1 antibody; also called KPA01; 15D3 hybridoma
